# B1: kinesin-II (wild type heterotrimer KLP-11/KLP-20/KAP-1) (Caenorhabditis elegans) (protein)
# chain 1: MVEIMKKSSKQETVKVIVRCRPLSSQEIANNYSKIVHMRPQRGQIELKNPKEQDEPSKDFTFDAIYDENSTQSDLYEETFRDLVDSVLNGYNATIFAYGQTGTGKTHTMEGKSSDPEQRGVIYKCIDHIFEHMAASHNQEYLVRASYLEIYQEELRDLLEAESNKKLEIKERPDGGVYVKDLTSKLTRTVGEIHEVMIRGNGHRSVGRTNMNEHSSRSHAIFIITVECSRIGEDGESHITVGRLNLVDLAGSERQSKTGATGERFKEATKINLSLSALGNVISALVDAKSAHIPYRDSKLTRLLQDSLGGNSKTVMVACIGPASYNFEETLGTLRYANRAKNIKNQPKINEDPKDALLREFQEEIEMLREQLKQRKTRSRDGATQSFYDAERAKLEDDIEAIQKDDSLIKHEKDRLIREIQEKHDLLEKERIEQARVAERIANIQSRLIVGSEEDGRLESRTKEQHAQLEKKRRELAEQKRREREMVEALERQEEDTVDLKQTFSDLRTEVEAKTKKLKKMLIKLRQARNEIRDVSGAYSDERQDLDQTIAEVSKELKLKLLIVENFIPRDVSERIKERAEWNEDSFEWNVNAFQSTSSNSSTPLNNTIEVNEDGVFTRSSGADSGVSVSGGNGTPATSQFLDKRLVATPGCRRPMSMCERMLVETAREQFGAQRRPPISGSGSFVEATIPEETIRFCGENVVVFSALERFVPEVTDSDPSTFSNSMMMSARRPSIENLTIDASKVLVPILNQSTMILKNSKNGQARNDTMPPNGSMRRSQN
# chain 2: MEGAEKVKVVVRCRPISTTEKLQGHKIAVTCNDEEKAVNIKSLSQEDPPRTFYFDAVFSPNTDQMTVYNVAARPIVENVLKGYNGTIFAYGQTGTGKTFTMAGDLEPVEMRGIIPNSFAHIFDHIAKCQHDTTFLVRVSYLEIYNEEIRDLLSKDHNGNLEIKERPDVGVYVRNLSNPTVENASKMQALMEFGSKNRKVGATAMNLESSRSHAMFTVTIESCRNGLVTQGKLQLVDLAGSERQSKTGAQGERLKEAAKINLSLSTLGNVISSLVDGKSTHIPYRNSKLTRLLQDSLGGNSKTVMIANVGPATYNYDETLSTLRYANRAKNIQNVAKINEDPKDAQLRKFQLEIEALRKILDEENPGDDENQEEAWEAKMQEREVEMEKKRKILEERVNSAVNDEETHRLVKEMMENEAELKKARSEHEKLRSKLEKIEKKLIVGGENLLEKVEEQAKLLEVNNKELEQSKFQEAHLRTQLEERTAVKVEIEERYSSLQEEAFVKSKKIKKVSNELKDARAELKDLEEDHQRQVEAMLDDIRQLRKELLLNIAIIDEYIPVEHVELIEKYVSWSEEHGDWQLKAIAYTGNNMRASAPPAKKEFSNNNQTVPMYYSYRADLGASTAEHRPRTSSKKHRASIRLQQLLT
# Substrate: Nc1ncnc2c1ncn2[C@@H]1O[C@H](COP(=O)(O)OP(=O)(O)OP(=O)(O)O)[C@@H](O)[C@H]1O
# Assay: purified protein
# Details: microtubules; standard assay conditions; apparent Km from gliding velocity
protein,measurement,value
B1,Vmax,15.6 µM/min

# Source: publication PMC3787135
